# Source: patent US20240270846A1 (published 2024)
# Biological target: T1, CD3 epsilon homodimer protein (UniProt P07766 23-126)
# T1 construct: construct not described; homodimer as printed; also called CD3 (CD3 epsilon)
# Experiment: SPR Biacore T200, CD3 epsilon homodimer immobilized; vs unaltered GLS3000;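 further: antibody variants flowed as analyte over CD3 epsilon homodimer amine-coupled to a CM4 chip, at 25 °C in HBS-EP+ running buffer, fitted with Biacore T200 Evaluation Software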
# T1 sequence (P07766 23-126): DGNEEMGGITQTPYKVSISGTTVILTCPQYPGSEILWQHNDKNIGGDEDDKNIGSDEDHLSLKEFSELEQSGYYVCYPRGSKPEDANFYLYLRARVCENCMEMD
row,Binder,KD ratio to GLS3000 (Affinity up)
1,"GLS3000 R29A (Kabat) L chain altered form, one-arm antibody with CE115HA000 (antibody, human IgG1, kappa, L234A L235A, N297A, name in Kabat numbering, one-arm antibody) heavy: QVQLVESGGGVVQPGRSLRLSCAASGFTFSNAWMHWVRQAPGKGLEWVAQIKAKSNNYATYYAESVKGRFTISRDDSKNSLYLQMNSLKTEDTAVYYCRYVHYGAYYGVDAWGQGTTVTVSSASTKGPSVFPLAPSSKSTSGGTAALGCLVKDYFPEPVTVSWNSGALTSGVHTFPAVLQSSGLYSLSSVVTVPSSSLGTQTYICNVNHKPSNTKVDKKVEPKSCDKTHTCPPCPAPEAAGGPSVFLFPPKPKDTLMISRTPEVTCVVVDVSHEDPEVKFNWYVDGVEVHNAKTKPREEQYASTYRVVSVLTVLHQDWLNGKEYKCKVSNKALPAPIEKTISKAKGQPREPQVYTLPPSRCELTKNQVSLSCAVKGFYPSDIAVEWESNGQPENNYKTTPPVLDSDGSFFLVSKLTVDKSRWQQGNVFSCSVMHEALHNHYTQKSLSLSPDYKDDDDK EPKSSDKTHTCPPCPAPELLGGPSVFLFPPKPKDTLMISRTPEVTCVVVDVSHEDPEVKFNWYVDGVEVHNAKTKPREEQYNSTYRVVSVLTVLHQDWLNGKEYKCKVSNKALPAPIEKTISKAKGQPREPQVCTLPPSRDELTKNQVSLWCLVKGFYPSDIAVEWESNGQPENNYKTTPPVLDSDGSFFLYSKLTVDKSRWQQGNVFSCSVMHEALHNRYTQKSLSLSP light: DIVMTQSPLSLPVTPGEPASISCRSSQSLVHSNANTYLHWYQQKPGQAPRLLIYKVSNRFSGVPDRFSGSGSGTDFTLKISRVEAEDVGVYYCGQGTQVPYTFGQGTKLEIKRTVAAPSVFIFPPSDEQLKSGTASVVCLLNNFYPREAKVQWKVDNALQSGNSQESVTEQDSKDSTYSLSSTLTLSKADYEKHKVYACEVTHQGLSSPVTKSFNRGEC",1.15
2,"GLS3000 R29I (Kabat) L chain altered form, one-arm antibody with CE115HA000 (antibody, human IgG1, kappa, L234A L235A, N297A, name in Kabat numbering, one-arm antibody) heavy: QVQLVESGGGVVQPGRSLRLSCAASGFTFSNAWMHWVRQAPGKGLEWVAQIKAKSNNYATYYAESVKGRFTISRDDSKNSLYLQMNSLKTEDTAVYYCRYVHYGAYYGVDAWGQGTTVTVSSASTKGPSVFPLAPSSKSTSGGTAALGCLVKDYFPEPVTVSWNSGALTSGVHTFPAVLQSSGLYSLSSVVTVPSSSLGTQTYICNVNHKPSNTKVDKKVEPKSCDKTHTCPPCPAPEAAGGPSVFLFPPKPKDTLMISRTPEVTCVVVDVSHEDPEVKFNWYVDGVEVHNAKTKPREEQYASTYRVVSVLTVLHQDWLNGKEYKCKVSNKALPAPIEKTISKAKGQPREPQVYTLPPSRCELTKNQVSLSCAVKGFYPSDIAVEWESNGQPENNYKTTPPVLDSDGSFFLVSKLTVDKSRWQQGNVFSCSVMHEALHNHYTQKSLSLSPDYKDDDDK EPKSSDKTHTCPPCPAPELLGGPSVFLFPPKPKDTLMISRTPEVTCVVVDVSHEDPEVKFNWYVDGVEVHNAKTKPREEQYNSTYRVVSVLTVLHQDWLNGKEYKCKVSNKALPAPIEKTISKAKGQPREPQVCTLPPSRDELTKNQVSLWCLVKGFYPSDIAVEWESNGQPENNYKTTPPVLDSDGSFFLYSKLTVDKSRWQQGNVFSCSVMHEALHNRYTQKSLSLSP light: DIVMTQSPLSLPVTPGEPASISCRSSQSLVHSNINTYLHWYQQKPGQAPRLLIYKVSNRFSGVPDRFSGSGSGTDFTLKISRVEAEDVGVYYCGQGTQVPYTFGQGTKLEIKRTVAAPSVFIFPPSDEQLKSGTASVVCLLNNFYPREAKVQWKVDNALQSGNSQESVTEQDSKDSTYSLSSTLTLSKADYEKHKVYACEVTHQGLSSPVTKSFNRGEC",1.6
3,"GLS3000 R29D (Kabat) L chain altered form, one-arm antibody with CE115HA000 (antibody, human IgG1, kappa, L234A L235A, N297A, name in Kabat numbering, one-arm antibody) heavy: QVQLVESGGGVVQPGRSLRLSCAASGFTFSNAWMHWVRQAPGKGLEWVAQIKAKSNNYATYYAESVKGRFTISRDDSKNSLYLQMNSLKTEDTAVYYCRYVHYGAYYGVDAWGQGTTVTVSSASTKGPSVFPLAPSSKSTSGGTAALGCLVKDYFPEPVTVSWNSGALTSGVHTFPAVLQSSGLYSLSSVVTVPSSSLGTQTYICNVNHKPSNTKVDKKVEPKSCDKTHTCPPCPAPEAAGGPSVFLFPPKPKDTLMISRTPEVTCVVVDVSHEDPEVKFNWYVDGVEVHNAKTKPREEQYASTYRVVSVLTVLHQDWLNGKEYKCKVSNKALPAPIEKTISKAKGQPREPQVYTLPPSRCELTKNQVSLSCAVKGFYPSDIAVEWESNGQPENNYKTTPPVLDSDGSFFLVSKLTVDKSRWQQGNVFSCSVMHEALHNHYTQKSLSLSPDYKDDDDK EPKSSDKTHTCPPCPAPELLGGPSVFLFPPKPKDTLMISRTPEVTCVVVDVSHEDPEVKFNWYVDGVEVHNAKTKPREEQYNSTYRVVSVLTVLHQDWLNGKEYKCKVSNKALPAPIEKTISKAKGQPREPQVCTLPPSRDELTKNQVSLWCLVKGFYPSDIAVEWESNGQPENNYKTTPPVLDSDGSFFLYSKLTVDKSRWQQGNVFSCSVMHEALHNRYTQKSLSLSP light: DIVMTQSPLSLPVTPGEPASISCRSSQSLVHSNDNTYLHWYQQKPGQAPRLLIYKVSNRFSGVPDRFSGSGSGTDFTLKISRVEAEDVGVYYCGQGTQVPYTFGQGTKLEIKRTVAAPSVFIFPPSDEQLKSGTASVVCLLNNFYPREAKVQWKVDNALQSGNSQESVTEQDSKDSTYSLSSTLTLSKADYEKHKVYACEVTHQGLSSPVTKSFNRGEC",1.58
4,"GLS3000 R29G (Kabat) L chain altered form, one-arm antibody with CE115HA000 (antibody, human IgG1, kappa, L234A L235A, N297A, name in Kabat numbering, one-arm antibody) heavy: QVQLVESGGGVVQPGRSLRLSCAASGFTFSNAWMHWVRQAPGKGLEWVAQIKAKSNNYATYYAESVKGRFTISRDDSKNSLYLQMNSLKTEDTAVYYCRYVHYGAYYGVDAWGQGTTVTVSSASTKGPSVFPLAPSSKSTSGGTAALGCLVKDYFPEPVTVSWNSGALTSGVHTFPAVLQSSGLYSLSSVVTVPSSSLGTQTYICNVNHKPSNTKVDKKVEPKSCDKTHTCPPCPAPEAAGGPSVFLFPPKPKDTLMISRTPEVTCVVVDVSHEDPEVKFNWYVDGVEVHNAKTKPREEQYASTYRVVSVLTVLHQDWLNGKEYKCKVSNKALPAPIEKTISKAKGQPREPQVYTLPPSRCELTKNQVSLSCAVKGFYPSDIAVEWESNGQPENNYKTTPPVLDSDGSFFLVSKLTVDKSRWQQGNVFSCSVMHEALHNHYTQKSLSLSPDYKDDDDK EPKSSDKTHTCPPCPAPELLGGPSVFLFPPKPKDTLMISRTPEVTCVVVDVSHEDPEVKFNWYVDGVEVHNAKTKPREEQYNSTYRVVSVLTVLHQDWLNGKEYKCKVSNKALPAPIEKTISKAKGQPREPQVCTLPPSRDELTKNQVSLWCLVKGFYPSDIAVEWESNGQPENNYKTTPPVLDSDGSFFLYSKLTVDKSRWQQGNVFSCSVMHEALHNRYTQKSLSLSP light: DIVMTQSPLSLPVTPGEPASISCRSSQSLVHSNGNTYLHWYQQKPGQAPRLLIYKVSNRFSGVPDRFSGSGSGTDFTLKISRVEAEDVGVYYCGQGTQVPYTFGQGTKLEIKRTVAAPSVFIFPPSDEQLKSGTASVVCLLNNFYPREAKVQWKVDNALQSGNSQESVTEQDSKDSTYSLSSTLTLSKADYEKHKVYACEVTHQGLSSPVTKSFNRGEC",0.62
